US20150011730A1 (UNIVERSITY OF SOUTH CAROLINA, published 2015)
Non-standard residues stand in square brackets, D forms with d. No end group written: not given here. *: point of attachment. Pyrazole N‑cap (R1 OCH3, R2 H, R3 H, R4 CH3, W N, X N, Y C, Z C) = not defined here; Pyrazole N‑cap (R1 Cl, R2 H, R3 Cl, R4 CH3, W N, X N, Y C, Z C) = not defined here; Pyrazole N‑cap (R1 Cl, R2 H, R3 H, R4 CH3, W N, X N, Y C, Z C) = not defined here; Pyrazole N‑cap (R1 F, R2 H, R3 H, R4 CH3, W N, X N, Y C, Z C) = not defined here; Pyrazole N‑cap (R1 H, R2 H, R3 H, R4 CH3, W N, X N, Y C, Z C) = not defined here; benzoic acid Scaffold III (R1 H, R2 CHEM-US-00025 C6H13NO) = not defined here; benzoic acid Scaffold III (R1 H, R2 CHEM-US-00026 C5H12N2) = not defined here; 3‑phenoxybenzylamide = c1ccc(Oc2cccc(CN*)c2)cc1; Cha = N[C@@H](CC1CCCCC1)C(=O)O; β3hL = CC(C)C[C@H](N)CC(=O)O

B1: SCCP 5852 (Imidazole N-cap ligated to RLIF) (peptide)
peptide: {2‑(3-fluorophenyl)‑1H‑imidazole‑4‑carbonyl}-RLIF
notes: also called 2-(3-fluorophenyl)-1H-imidazole-4-carboxamide
B2: SAKRR{bLeu}3TAG-OH (peptide)
peptide: SAKRRLAG
HELM: PEPTIDE1{S.A.K.R.R.[CC(C)C[C@@H](CC(=O)[*:2])N[*:1]].[O=C([C@H](Cc1ccsc1)N[*:1])[*:2]].G}$$$$V2.0; N-terminus assumed
SMILES: CC(C)C[C@@H](CC(=O)N[C@@H](Cc1ccsc1)C(=O)NCC(=O)O)NC(=O)[C@H](CCCNC(=N)N)NC(=O)[C@H](CCCNC(=N)N)NC(=O)[C@H](CCCCN)NC(=O)[C@H](C)NC(=O)[C@@H](N)CO
notes: C-terminal free acid (-OH); also called SCCP 5813
B3: SAKRRL3TA G-OH (peptide)
peptide: SAKRRLXG
HELM: PEPTIDE1{S.A.K.R.R.L.[O=C([C@H](Cc1ccsc1)N[*:1])[*:2]].G}$$$$V2.0; N-terminus assumed
SMILES: CC(C)C[C@H](NC(=O)[C@H](CCCNC(=N)N)NC(=O)[C@H](CCCNC(=N)N)NC(=O)[C@H](CCCCN)NC(=O)[C@H](C)NC(=O)[C@@H](N)CO)C(=O)N[C@@H](Cc1ccsc1)C(=O)NCC(=O)O
notes: C-terminal free acid (-OH); also called SCCP 5814
B4: HAKRRLIX4 (peptide)
peptide: HAKRRLIA
HELM: PEPTIDE1{H.A.K.R.R.L.I.[O=C([C@H](CC1CCC1)N[*:1])[*:2]].[am]}$$$$V2.0; N-terminus assumed
SMILES: CC[C@H](C)[C@H](NC(=O)[C@H](CC(C)C)NC(=O)[C@H](CCCNC(=N)N)NC(=O)[C@H](CCCNC(=N)N)NC(=O)[C@H](CCCCN)NC(=O)[C@H](C)NC(=O)[C@@H](N)Cc1c[nH]cn1)C(=O)N[C@@H](CC1CCC1)C(N)=O
B5: HAKRRLIX7 (peptide)
peptide: HAKRRLIA
HELM: PEPTIDE1{H.A.K.R.R.L.I.[O=C([C@H](Cc1cccnc1)N[*:1])[*:2]].[am]}$$$$V2.0; N-terminus assumed
SMILES: CC[C@H](C)[C@H](NC(=O)[C@H](CC(C)C)NC(=O)[C@H](CCCNC(=N)N)NC(=O)[C@H](CCCNC(=N)N)NC(=O)[C@H](CCCCN)NC(=O)[C@H](C)NC(=O)[C@@H](N)Cc1c[nH]cn1)C(=O)N[C@@H](Cc1cccnc1)C(N)=O
B6: HAKRRLIX3 (peptide)
peptide: HAKRRLIA
HELM: PEPTIDE1{H.A.K.R.R.L.I.[O=C([C@H](Cc1ccsc1)N[*:1])[*:2]].[am]}$$$$V2.0; N-terminus assumed
SMILES: CC[C@H](C)[C@H](NC(=O)[C@H](CC(C)C)NC(=O)[C@H](CCCNC(=N)N)NC(=O)[C@H](CCCNC(=N)N)NC(=O)[C@H](CCCCN)NC(=O)[C@H](C)NC(=O)[C@@H](N)Cc1c[nH]cn1)C(=O)N[C@@H](Cc1ccsc1)C(N)=O

target: T1, CDK4/cyclin D1 (as used in the binding assay) (UniProt P11802 1-303; P24385 1-295); test: FP binding assay
T1 construct: kept apart from the GST-tagged kinase-assay complex m2; also called CDK4/D1
T1 sequence (P11802 whole entry, chain 1 of 2): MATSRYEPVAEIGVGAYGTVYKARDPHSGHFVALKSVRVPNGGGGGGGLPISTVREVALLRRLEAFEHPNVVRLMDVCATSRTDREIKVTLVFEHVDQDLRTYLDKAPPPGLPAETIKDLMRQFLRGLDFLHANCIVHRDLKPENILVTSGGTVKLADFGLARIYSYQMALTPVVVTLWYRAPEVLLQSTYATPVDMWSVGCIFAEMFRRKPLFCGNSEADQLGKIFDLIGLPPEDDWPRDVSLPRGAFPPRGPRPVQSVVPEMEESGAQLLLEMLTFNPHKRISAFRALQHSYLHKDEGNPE
T1 sequence (P24385 whole entry, chain 2 of 2): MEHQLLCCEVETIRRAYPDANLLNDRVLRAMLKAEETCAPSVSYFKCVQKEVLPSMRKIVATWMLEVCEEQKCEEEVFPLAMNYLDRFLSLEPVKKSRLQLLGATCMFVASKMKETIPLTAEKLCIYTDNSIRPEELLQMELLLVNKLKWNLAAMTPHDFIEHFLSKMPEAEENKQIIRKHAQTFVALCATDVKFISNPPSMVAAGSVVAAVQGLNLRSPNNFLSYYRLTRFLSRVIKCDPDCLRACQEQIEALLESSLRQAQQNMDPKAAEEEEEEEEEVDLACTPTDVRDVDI

Binder	IC50
{Pyrazole N‑cap (R1 F, R2 H, R3 H, R4 CH3, W N, X N, Y C, Z C)}-RLIF (reading uncertain; also: cap structure given only by scaffold parameters) [SCCP 5771 (Pyrazole N-cap ligated to RLIF)]	69.6 µM
{Pyrazole N‑cap (R1 H, R2 H, R3 H, R4 CH3, W N, X N, Y C, Z C)}-RLIF (reading uncertain; also: cap structure given only by scaffold parameters) [SCCP 5762 (Pyrazole N-cap ligated to RLIF)]	53.8 µM
{Pyrazole N‑cap (R1 Cl, R2 H, R3 H, R4 CH3, W N, X N, Y C, Z C)}-RLIF (reading uncertain; also: cap structure given only by scaffold parameters) [SCCP 5764 (Pyrazole N-cap ligated to RLIF)]	45 µM
B1	67 µM
{Triazole N‑cap (R1 H, R2 H, R3 H, R4 H, W N, X N, Y N, Z C)}-RLIF (also: cap structure given only by scaffold parameters) [SCCP 5843 (Triazole N-cap ligated to RLIF)]	48.7 µM

target: T2, CDK2/cyclin A (as used in the binding assay) (UniProt P24941 1-298; P20248 1-432); test: FP binding assay

Binder	IC50
{Pyrazole N‑cap (R1 F, R2 H, R3 H, R4 CH3, W N, X N, Y C, Z C)}-RLIF (reading uncertain; also: cap structure given only by scaffold parameters) [SCCP 5771 (Pyrazole N-cap ligated to RLIF)]	29.6 µM
{Pyrazole N‑cap (R1 Cl, R2 H, R3 H, R4 CH3, W N, X N, Y C, Z C)}-RLIF (reading uncertain; also: cap structure given only by scaffold parameters) [SCCP 5764 (Pyrazole N-cap ligated to RLIF)]	11.9 µM
{Pyrazole N‑cap (R1 Cl, R2 H, R3 Cl, R4 CH3, W N, X N, Y C, Z C)}-RLIF (reading uncertain; also: cap structure given only by scaffold parameters) [SCCP 5763 (Pyrazole N-cap ligated to RLIF)]	21.8 µM
B1	34.3 µM
{Triazole N‑cap (R1 H, R2 H, R3 H, R4 H, W N, X N, Y N, Z C)}-RLIF (also: cap structure given only by scaffold parameters) [SCCP 5843 (Triazole N-cap ligated to RLIF)]	16.2 µM
{Pyrazole N‑cap (R1 OCH3, R2 H, R3 H, R4 CH3, W N, X N, Y C, Z C)}-RLIF (reading uncertain; also: cap structure given only by scaffold parameters) [SCCP 5766 (Pyrazole N-cap ligated to RLIF)]	64.1 µM

target: T1, CDK4/cyclin D1 (as used in the binding …); test: not given

Binder	IC50
XRLIF (Cit at position 1 = citrulline; C-terminal amide, also called SCCP 5812) [CitRLIF]	72.3 µM
RXLIF (Cit at position 2 = citrulline; C-terminal amide, also called SCCP 5831) [RCitLIF]	46.5 µM
RRLNF (pfF at position 5 = p-fluorophenylalanine; C-terminal amide, also called SCCP 540) [RRLNpfF]	8 µM
RKLIF (dimethyllysine at position 2 (lysine with the epsilon amino group methylated), also called SCCP 5918) [R(dimethyllys)LIF]	72.2 µM
HAKRRLI[Cha]-NH2 (not fully specified, also called HAKRRLIX6; HAKRRLI{CHA}) [HAKRRLIR6]	0.26 µM

target: T2, CDK2/cyclin A (as used in the binding …); test: not given

Binder	IC50
B2	0.31 µM
B3	0.43 µM
RKLIF (dimethyllysine at position 2 (lysine with the epsilon amino group methylated), also called SCCP 5918) [R(dimethyllys)LIF]	5.4 µM
HAKRRLI[Cha]-NH2 (not fully specified, also called HAKRRLIX6; HAKRRLI{CHA}) [HAKRRLIR6]	0.25 µM

target: T3, CDK2/Cyclin A2, full-length recombinant, N-terminal GST tag on both proteins (UniProt P24941 1-298; P20248 1-432); test: cell-based or functional assay

Binder	IC50, kinase assay	Potency ratio vs native HAKRRLIF
HAKTRLIF-NH2	50 µM	38.5 ratio
Arg-Arg-[β3hL]-{3‑phenoxybenzylamide} [Arg-Arg-β-homoleucyl-3-phenoxybenzylamid]	> 100 µM	–

target: CDK4/Cyclin D1, full-length recombinant, N-terminal GST tag on both proteins (UniProt P11802 2-303; P24385 1-295); test: cell-based or functional assay
Sequence (P11802 2-303, chain 1 of 2): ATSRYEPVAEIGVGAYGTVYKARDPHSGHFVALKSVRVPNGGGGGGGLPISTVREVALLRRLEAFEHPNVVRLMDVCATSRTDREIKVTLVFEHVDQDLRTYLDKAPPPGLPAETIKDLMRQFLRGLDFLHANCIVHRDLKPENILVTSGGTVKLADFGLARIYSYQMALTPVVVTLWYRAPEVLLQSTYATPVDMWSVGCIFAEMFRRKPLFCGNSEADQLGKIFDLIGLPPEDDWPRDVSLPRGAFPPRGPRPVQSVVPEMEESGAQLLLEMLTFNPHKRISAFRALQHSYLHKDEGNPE
Sequence (P24385 whole entry, chain 2 of 2): as the sequence (P24385 whole entry, chain 2 of 2) above

Binder	IC50, kinase assay	Potency ratio vs native HAKRRLIF	Potency ratio
XRLIF (Cit at position 1 = citrulline; C-terminal amide, also called SCCP 5812) [CitRLIF]	179 µM	–	–
HAKTRLIF-NH2	25 µM	16.7 ratio	–
PAKRRLFG-NH2	6.7 µM	–	–
Arg-Arg-[β3hL]-{3‑phenoxybenzylamide} [Arg-Arg-β-homoleucyl-3-phenoxybenzylamid]	60 µM	–	20.7 ratio
SAKRALFGM-NH2	68 µM	–	–
SAKRNLFGM-NH2	146 µM	–	–

target: T3, CDK2/Cyclin A2, full-length …; test: cell-based or functional assay; remark: another data set of the same source

Binder	IC50, kinase assay
B4	25 µM
HAKRRLI[2‑thienylalanine]-NH2 [HAKRRLIX2]	3.6 µM
B5	29 µM
B6	25 µM
HAKRRLI[Cha]-NH2 (not fully specified, also called HAKRRLIX6; HAKRRLI{CHA}) [HAKRRLIR6]	58 µM

target: T1, CDK4/cyclin D1 (as used in the binding …); test: not given; remark: another data set of the same source

Binder	fold enhancement of activity vs unsubstituted benzoic acid
{benzoic acid Scaffold III (R1 H, R2 CHEM-US-00026 C5H12N2)}-RLIF (reading uncertain; also: cap structure given only by scaffold parameters) [SCCP 5850 (benzoic acid N-cap-RLIF)]	9 fold
{benzoic acid Scaffold III (R1 H, R2 CHEM-US-00025 C6H13NO)}-RLIF (not fully specified (C-terminus); reading uncertain) [SCCP 5851 (benzoic acid N-cap-RLIF)]	26 fold
